Assay results reported in US20230141177A1.

Tests used:
[1] = target: AβO in the low molecular weight (LMW) fraction of pooled soluble human AD brain extract (~8 kDa to ~70 kDa) (human) (UniProt P05067); assay: sandwich SPR: LMW material captured by immobilized Clone 14, detected by aducanumab
[2] = target: AβO in the low molecular weight (LMW) fraction of pooled soluble human AD brain extract (~8 kDa to ~70 kDa) (human) (UniProt P05067); assay: sandwich SPR: LMW material captured by immobilized Clone 4, detected by aducanumab
[3] = target: Aβ aggregates in the high molecular weight (HMW) fraction of pooled soluble human AD brain extract (>70 kDa to ~700 kDa) (human) (UniProt P05067); assay: sandwich SPR: HMW material captured by immobilized Clone 14, detected by aducanumab
[4] = target: Aβ aggregates in the high molecular weight (HMW) fraction of pooled soluble human AD brain extract (>70 kDa to ~700 kDa) (human) (UniProt P05067); assay: sandwich SPR: HMW material captured by immobilized Clone 4, detected by aducanumab
[5] = target: Aβ aggregates in the high molecular weight (HMW) fraction of pooled soluble human AD brain extract (>70 kDa to ~700 kDa) (human) (UniProt P05067); assay: sandwich SPR: HMW material captured by immobilized Clone 5, detected by aducanumab
[6] = target: AβO in the low molecular weight (LMW) fraction of pooled soluble human AD brain extract (~8 kDa to ~70 kDa) (human) (UniProt P05067); assay: sandwich SPR: LMW material captured by immobilized Parental, detected by aducanumab
[7] = target: Aβ aggregates in the high molecular weight (HMW) fraction of pooled soluble human AD brain extract (>70 kDa to ~700 kDa) (human) (UniProt P05067); assay: sandwich SPR: HMW material captured by immobilized Parental, detected by aducanumab

Bound Ab detection by aducanumab, LMW (BRU) [1]: 4.4 BRU
Bound Ab detection by aducanumab, LMW (BRU) [2]: 7.7 BRU
Bound Ab detection by aducanumab, HMW (BRU) [3]: 5.7 BRU
Bound Ab detection by aducanumab, HMW (BRU) [4]: 10.4 BRU
Bound Ab detection by aducanumab, HMW (BRU) [5]: 1.25 BRU
Bound Ab detection by aducanumab, LMW (BRU) [6]: 5.8 BRU
Bound Ab detection by aducanumab, HMW (BRU) [7]: 8.3 BRU
Substance: Aducanumab (antibody)
